Laboratory results published in the supplement of paper PMC7877785.
± gives the uncertainty stated by the source.

Assay: self-splicing fitness, log relative to wild type (ln ratio); higher = more splicing; Tetrahymena group I intron in knt gene, E. coli kanamycin selection, DiMSum; sequences stand for … in CUCUCU…GGAGGGAAAAGUUAUCAGGCAUGCACCUGGUAGCUAGUCUUUAAACCAAUAGAUUGCAUCGGUUUAAAAGGCAAGACCGUCAAAUUGCGGGAAAGGGGUCAACAGCCGUUCAGUACCAAGUCUCAGGGGAAACUUUGAGAUGGCCUUGCAAAGGGUAUGGUAAUAAGCUGACGGACAUGGUCCUAACCACGCAGCCAAGUCCUAAGUCAACAGAUCUUCUGUUGAUAUGGAUGCAGUUCACAGACUAAAUGUCGGUCGGGGAAGAUGUAUUCUUCUCAUAAGAUAUAGUCGGACCUCUCCUUAAUGGGAGCUAGCGGAUGAAGUGAUGCAACACUGGAGCCGCUGGGAACUAAUUUGUAUGCGAAAGUAUAUUGAUUAGUUUUGGAGUACUCGUGGUCG
Summary of the method: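 Fitness was computed with DiMSum as the error-weighted combination of replicate fold changes, kanamycin versus none, each normalised to wild type. The library randomised all eight intron nucleotides of the P1ex region, with the intron placed in the knt kanamycin-resistance gene on pET-22b(+) in E. coli BL21(DE3). Six replicate transformations were grown overnight at 37°C or 30°C on LB agar with or without 25 μg/mL kanamycin, plus 100 μg/mL carbenicillin, 50 μM IPTG and 0.2% rhamnose. Pooled colonies were amplicon-sequenced on an Illumina HiSeq 2500.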

Sequence	self-splicing fitness (ln) (30 °C)	self-splicing fitness (ln) (37 °C)
GGAAAGCAAUAUUACGUACG	-0.792 ± 0.097	-0.786 ± 0.11
GGAAAGCAAUAUUACGUCCC		-2.61 ± 0.33
GGAAAGCAAUAUUACGUGAA	-1.96 ± 0.11	-1.45 ± 0.16
GGAAAGCAAUAUUACGUGAG	-1.22 ± 0.047	-0.225 ± 0.069
GGAAAGCAAUAUUACGUGGA	-3.49 ± 0.28	-1.96 ± 0.23
GGACAGCAAUAUUACGAAAC	-0.691 ± 0.12	-0.624 ± 0.2
GGACAGCAAUAUUACGACCA	-1.46 ± 0.13	-0.645 ± 0.16
GGACAGCAAUAUUACGACCU	-0.544 ± 0.077	-0.13 ± 0.087
GGACAGCAAUAUUACGAGGG	-3.16 ± 0.14	-2.28 ± 0.15
GGACAGCAAUAUUACGCAAC	-1.68 ± 0.15	-0.445 ± 0.18
GGACAGCAAUAUUACGCAUA	-0.761 ± 0.094	0.314 ± 0.12
GGACAGCAAUAUUACGCCAG	-2.17 ± 0.22	-2.07 ± 0.35
GGACAGCAAUAUUACGCUAU	-1.42 ± 0.098	-0.49 ± 0.11
GGACAGCAAUAUUACGCUGA	-2.21 ± 0.16	-1.51 ± 0.15
GGACAGCAAUAUUACGGGAA	-2.7 ± 0.1	-1.04 ± 0.083
GGACAGCAAUAUUACGGGAG	-2.73 ± 0.13	-1.28 ± 0.15
GGACAGCAAUAUUACGGGCC		-1.52 ± 0.29
GGACAGCAAUAUUACGGUAA	-1.34 ± 0.082	-0.697 ± 0.075
GGACAGCAAUAUUACGGUCA	-0.242 ± 0.046	0.817 ± 0.07
GGACAGCAAUAUUACGUACA	-1.06 ± 0.096	0.0922 ± 0.12

Sequence	self-splicing fitness (ln) (30 °C)	self-splicing fitness (ln) (37 °C)
GGACAGCAAUAUUACGUCAU	-1.17 ± 0.095	-0.489 ± 0.1
GGACAGCAAUAUUACGUCUG	-1.1 ± 0.057	-0.31 ± 0.072
GGACAGCAAUAUUACGUGGA	-1.08 ± 0.076	-1.29 ± 0.075
GGACAGCAAUAUUACGUGGC	-3.02 ± 0.26	-0.384 ± 0.16
GGACAGCAAUAUUACGUGUC	-3.52 ± 0.28	-2.68 ± 0.23
GGACAGCAAUAUUACGUUAA	-0.204 ± 0.07	0.00356 ± 0.08
GGAGAGCAAUAUUACGAAAA		-0.772 ± 0.31
GGAGAGCAAUAUUACGAGAU	-2.5 ± 0.36	-2.14 ± 0.34
GGAGAGCAAUAUUACGCACG		-0.798 ± 0.47
GGAGAGCAAUAUUACGCGAG	-2.31 ± 0.48	
GGAGAGCAAUAUUACGCGAU	-2.76 ± 0.28	-1.64 ± 0.37
GGAGAGCAAUAUUACGCGUU	-2.46 ± 0.28	-1.82 ± 0.32
GGAGAGCAAUAUUACGGACG		-1.27 ± 0.31
GGAGAGCAAUAUUACGGCAC	-1.39 ± 0.37	
GGAGAGCAAUAUUACGGGAG	-4.1 ± 0.21	-2.37 ± 0.23
GGAGAGCAAUAUUACGGUGU	-3.55 ± 0.28	-2.38 ± 0.18
GGAGAGCAAUAUUACGUACG	-2.56 ± 0.43	
GGAGAGCAAUAUUACGUCAG	-3.34 ± 0.22	-1.75 ± 0.21
GGAGAGCAAUAUUACGUCUU	-4.08 ± 0.28	-3.23 ± 0.38
GGAGAGCAAUAUUACGUUCG	-1.27 ± 0.19	-0.35 ± 0.23
